Results: the supplement of paper PMC9170038

test system: MS2 coat protein; assay: apparent KD of MS2 coat protein, switch OFF state (with FMN for OFF switches, without FMN for ON switches); designed switch direction (-1 OFF switch, 1 ON switch): -1; higher = weaker reporter binding; conditions: FMN input: 0 or 200 uM; Eterna round: R93 (includes R88 designs)
Summary of the method: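 Designed RNA switches were transcribed on-chip from Illumina sequencing clusters and titrated with SNAP-549-labelled MS2 coat protein in twofold steps from 0.7 or 1.5 nM up to 3 µM. Each step lasted 0.8–1.5 h at first and 10–20 min by the end, in 100 mM Tris-HCl pH 7.5, 80 mM KCl and 4 mM MgCl2, without or with constant ligand. Apparent KD is the median, for each design, of fits to normalised cluster binding curves.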

Sequence	apparent KD of MS2 coat protein [nM]
AGCUAGCAAGGAUAUACGAACAUGUCAAAAGACGUGAAGGGACAUGAGGAUCACCCAUGUAGAAGGUGCUAGCA [JL 74% mod 8]	127
AACUGCGCAGGAUAUACAUGAGGAUCACCCAUGUAAAGAAAAGAAAGAUCCGAAGAAAGUAGAAGGGCGUGGAA [Variant 2 of Mod 1 of Ex3 sub 3, by Tesla's Dusciple Round 1]	56.3
AAAAAGGCAGGAUAUACGAAACUAAGACAAAUAAGAAAGGGACAUGAGGAUCACCCAUGUAGAAGGGCCAAAAA [Exclusion 2-01... 60% 4]	70.1
AAAACACAUGAGGAUCACCCAUGUGAGGAUAUCGUGCAGUAGACGAAAGUCUACUGCACGAGAAGGCACAAGGA [Tweaking Brourd]	50.2
UAAAGACAUGAGGAUCACCCAUGUGAGGAUAUAGGUGUAUGCAAAAAAAAGCAAAAAACUAGAAGGCACAGAAA [JR_Exc001_Sub304]	68.9
AAGAAGAGAGGAUAUACAUGAGGAUCACCCAUGUAAAAGAAAGAAAAGGGAAAGAAAAGUAGAAGGCUCAAGAA [Aakheperrure Amenhotep II]	38.3
AACAAUACAGGAUAUACAUGAGGAUCACCCAUGUGAGAAUUAAGUGGCGUACCACAAGGUAGAAGGGUAAUGGA [Ruby 2]	34.7
AAAUUGUCAGGAUAUCUUAGAACUGUCAAAGACAGGAGCUAAGAGAAGGGACAUGAGGAUCACCCAUGUAAAAC [May 90]	88.5
AUCUAGUCAGGAUAUCGAUGAAAUGAAGUGAAAGAAAAGAACGAGAAGGGACAUGAGGAUCACCCAUGUUAGAA [EteRNA is fun!]	18.8
GGCUAGUCAGGAUAUACGAACAUGUCAAAAGACGUGAAGGGACAUGAGGAUCACCCAUGUAGAAGGGACUAGCG [salish99-ex2-13]	132
AGCUAGUCAGGAUAUACGAACAUGUCAAAAGACGUGAAGGGACAUGAGGAUCACCCAUGUAGAAGGGACUAGCU [salish99-Ex2-20]	106
AAAAAACAUGAGGAUCACCCAUGUGAGGAUAUGCAAAAGAAAAGAAAAGAAAGAAGAAGCAGAAGGCACAAGAA [Djedefra]	36.8
UAAAACAGAGGAUAUACAUGAGGAUCACCCAUGUAAAAAUGUAGAAGGCUGAAAUAAAUAAGAAGGAAAUAAAA [Meechl Ex3 R2 m1]	25.6
AGAACGUCAGGAUAUCCAACAACAAGUAAAUAGAGAAGAAGGGAGAAGGGACAUGAGGAUCACCCAUGUAAGAA [e4-2]	29.9
AAAAAGGGAGGAUAUACAUGAGGAUCACCCAUGUAAAAAAAAACAAAAAAAAAAAAAAGUAGAAGGCCCAAAAA [here you go]	37.5
AACAAACAUGAGGAUCACCCAUGUCAGGAUAUGCAAACAACAAACAACAAACAACAAAGCAGAAGGGACGACAA [63%, Olong, 3]	37.5
AAGAAGUGAGGAUAUACAUGAGGAUCACCCAUGUAAAAGAAAGAAAAGGGAAAGAAAAGUAGAAGGCACAAGAA [Maatkare Hatshepsut]	58.3
CAAAGGUGAGGAUAUACAUAACUAUGACGAAAGUCAUAAACACAUGAGGAUCACCCAUGUAGAAGGCACCACAA [e2]	29.9

Sequence	apparent KD of MS2 coat protein [nM]
AAAUGACAUGAGGAUCACCCAUGUCAGGAUAUGACUUGAAAAAUAAAAUAAAAACAUGUCAGAAGGGACAUGGA [Design 51: Sub-opt GB]	20.8
AAGAAGUCAGGAUAUCGAAGACAGACGAAAAGUCUGUCAAACGAGAAGGGACAUGAGGAUCACCCAUGUAAAGA [Mat - Exaclusion 4 - Eli mod - D73]	61
AACAUGUAAGGAUAUGAAAGAAAAGAAAAGAAAGAAAAGAAUCAGAAGGUACAUGAGGAUCACCCAUGUAAGAA [EteRNA is fun!]	26.7
AAAAAAAGAGGAUAUACGAACAUGUCAAAAGACGUGAAGGGACAUGAGGAUCACCCAUGUAGAAGGCUUAAAAA [JL Part Open 28]	26.3
AGCAAACAUGAGGAUCACCCAUGUCAGGAUAUGAACGAAAAUAAAUAAAAAUAAAAGUUCAGAAGGGACGAGCA [66%, Wbt, 25]	50.1
AAGAAUCGAGGAUAUACAAAAUAAAAGAAAAGAAAGAAAGAACAUGAGGAUCACCCAUGUAGAAGGCGAAAGAA [Khaneferre Sobekhotep IV]	21.9
AAAAAGAUAGGAUAUACGUACAUGUCAAAAGACGUGAAGGGACAUGAGGAUCACCCAUGUAGAAGGAUUAAAAA [JL Wide Open 40]	20.1
AAAUUGUCAGGAUAUCUUAGAAUAGUCAAAGACUAGAGCUAAGAGAAGGGACAUGAGGAUCACCCAUGUAAAAC [May 91]	56.6
AUAAUGUGAGGAUAUACAUGAGGAUCACCCAUGUAAUUAAAAAGGAGAGAAACAAUACGUAGAAGGUACAUUUA [JR_Exc003_Sub510]	29
AACAGUACAGGAUAUACAUGAGGAUCACCCAUGUAAAAAUAAAAGGGAAACUCAAAAAGUAGAAGGGUACUGGA [Moding Maslow revisited (73) 13]	78.6
AAAGGACAUGAGGAUCACCCAUGUGAGGAUAUCGGAAAAGGAAAAAAAAAAAAGAAGACGAGAAGGCACACCAA	55.6
AAAAAACAUGAGGAUCACCCAUGUGAGGAUAUGAACGAAAAUAAAUAAAAAUAAAAGUUCAGAAGGUACGAAAA [66%, Wbt, 3]	30.7
CAGUACUGAGGAUAUACAUGAGGAUCACCCAUGUAAAAAACCUACGAAAGUAGGAAAUGUAGAAGGCAGUACUG [Ex3: 803]	22.2
GGUUGGCGAGGAUAUACAUGAGGAUCACCCAUGUGAGAGAAAAAAGUGAGGAGGAGGAGUAGAAGGCGCUGACG [salish99-ex3-18]	97
AAACUGGUAGGAUAUGCUAGGGCGAUUAAUACGCCGAUAGUACAUGAGGAUCACCCAUGUAGAAGGGCCAGAAA [Mat - Exclusion 2 - JL mod - D65]	23.6
AAAAAGUCAGGAUAUGCAGAAAAAAAAACGAAAAAAAAACUGCAGAAGGGACAUGAGGAUCACCCAUGUUAAAA [Ex 4 May 14]	29.8
AAAUACUAAGGAUAUACAUGAGGAUCACCCAUGUACAAACCCGUGGAACGGAUCCUUAGUAGAAGGUGGACGAA [Onquerar]	13.9
